# Molecular target: Hck (UniProt P08631)
# Test: phosphorylation enrichment, bacterial display (enrichment ratio); higher = better substrate or ligand; peptides without Tyr show the background
# 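Further: 11-residue human phosphosite peptides and single-mutation variants displayed on the E. coli surface, counted by deep sequencing, each peptide's frequency after selection divided by its frequency in the unselected input library; frequency after pTyr selection over input frequency; kinase dosed for 20-30% of maximal phosphorylation in three min.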
# Chain of Hck (P08631 whole entry, looked up): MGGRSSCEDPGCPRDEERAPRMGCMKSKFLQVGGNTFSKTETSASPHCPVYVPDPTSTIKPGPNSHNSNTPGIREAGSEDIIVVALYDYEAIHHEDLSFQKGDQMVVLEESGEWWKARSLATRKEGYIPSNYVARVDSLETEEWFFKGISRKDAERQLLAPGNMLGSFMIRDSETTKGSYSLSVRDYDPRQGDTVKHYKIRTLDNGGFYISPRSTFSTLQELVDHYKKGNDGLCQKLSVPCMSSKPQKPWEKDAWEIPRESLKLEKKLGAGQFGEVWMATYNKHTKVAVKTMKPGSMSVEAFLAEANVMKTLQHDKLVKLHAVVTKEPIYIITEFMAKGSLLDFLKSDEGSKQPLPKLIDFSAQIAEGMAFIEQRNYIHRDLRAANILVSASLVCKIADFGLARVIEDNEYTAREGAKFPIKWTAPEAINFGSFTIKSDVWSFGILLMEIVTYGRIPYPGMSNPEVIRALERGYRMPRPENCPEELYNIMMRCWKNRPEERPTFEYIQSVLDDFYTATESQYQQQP
row,Sequence,phosphorylation enrichment
1,PRIHSYRGHLW [VHL_Y112_R107P],0.713
2,RELSWYRGQRP [HESX1_Y106_R109Q],0.552
3,STFVPCEIKVQ [L1CAM_Y784_Y784C],0.589
4,NPQKSYFILLF [WAS_Y83_R86L_YF],0.43
5,PADSGYPAYLG [ATP6V1A_Y374],0.735
6,SFPSTYRFERG [INPPL1_Y661_P659S_YF],0.479
7,YGMQLYQKYMH [GRB14_Y347_N349K],2.08
8,RAIGYYSATSK [FAM120A_Y328],0.37
9,IMAFFYMCDRA [CASD1_Y382_YF],0.545
10,EEEPVYKAEPE [HCLS1_Y360_E361K],0.595
11,EEAAGYAQESQ [CAMKV_Y491],0.661
12,RPFFLYVAFHN [SGSH_Y174_D179N],0.327
13,RFLKDYGEFEV [GINS1_Y156_C152Y_YF],0.695
14,FGAHNHHPLPV [OAT_Y55_Y55H_YF],0.457
15,ERSMSYSDESR [SMG1_Y143],0.456
16,DLEKTYNTFRS [B4GALNT2_Y538_A533D_YF],0.734
17,ARAHKYHGGGG [HBB_Y146_L142R],0.302

row,Sequence,phosphorylation enrichment
1,LTKQEYDEAGP [ACTA1_Y364_I359L],1.15
2,YDGKEYDPVEA [MAPRE2_Y167],0.567
3,KDPPDYKYQPR [SOX9_Y172_H169P],0.353
4,NVLPEYKLQAP [KCNH2_Y388_D383N],0.527
5,VRTGIYHGGEP [PIK3CA_Y361],0.586
6,PLGVLYKVKVY [PTS_Y128_V124L],0.465
7,HKANEYYPVVI [ADAMTS18_Y764_L769I],0.723
8,RAQIRYAQEHD [NSD1_Y1987_R1984Q],0.667
9,RSSKMYPKTRS [LPL_Y329_L330P],0.509
10,IEELTYIIKQD [STX5_Y137],0.528
11,GRVFVYRLSEQ [ITGAE_Y551_YF],0.492
12,IYHLSYLHNCE [PDE6B_Y227],1.75
13,CDGKEYDPVEA [MAPRE2_Y167_Y162C],0.567
14,PGAPAYRVLME [MYO5A_Y1245],0.564
15,AVARPYHIQKW [ACSBG1_Y677_A673V],0.402
16,QRIHNYFEHRF [HCN4_Y554_D553N_YF],0.409

# Molecular target: FGFR1 (UniProt P11362)
# Test: as above
# Chain of FGFR1 (P11362 whole entry, looked up): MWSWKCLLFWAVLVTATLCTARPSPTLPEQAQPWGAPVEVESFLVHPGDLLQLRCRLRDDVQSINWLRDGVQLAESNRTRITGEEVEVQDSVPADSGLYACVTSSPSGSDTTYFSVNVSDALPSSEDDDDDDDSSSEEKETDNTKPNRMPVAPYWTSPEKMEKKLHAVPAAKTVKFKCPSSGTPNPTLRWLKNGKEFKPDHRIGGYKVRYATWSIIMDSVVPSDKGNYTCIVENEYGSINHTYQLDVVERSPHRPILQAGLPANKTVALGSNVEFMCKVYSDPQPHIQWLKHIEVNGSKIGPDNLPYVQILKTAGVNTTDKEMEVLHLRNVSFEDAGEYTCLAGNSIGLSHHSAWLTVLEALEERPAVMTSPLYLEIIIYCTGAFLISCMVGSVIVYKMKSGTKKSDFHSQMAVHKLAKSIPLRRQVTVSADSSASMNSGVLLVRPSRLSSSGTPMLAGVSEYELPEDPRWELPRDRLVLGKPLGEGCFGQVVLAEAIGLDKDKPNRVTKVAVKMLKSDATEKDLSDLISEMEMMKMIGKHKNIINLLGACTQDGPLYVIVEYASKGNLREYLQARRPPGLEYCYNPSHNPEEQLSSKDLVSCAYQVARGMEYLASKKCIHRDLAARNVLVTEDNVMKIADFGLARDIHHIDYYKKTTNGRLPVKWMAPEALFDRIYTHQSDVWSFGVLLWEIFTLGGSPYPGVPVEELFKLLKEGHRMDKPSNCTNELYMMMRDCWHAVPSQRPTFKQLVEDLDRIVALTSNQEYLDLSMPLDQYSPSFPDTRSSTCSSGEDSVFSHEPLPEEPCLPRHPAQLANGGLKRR
row,Sequence,phosphorylation enrichment
1,PRIHSYRGHLW [VHL_Y112_R107P],0.771
2,RELSWYRGQRP [HESX1_Y106_R109Q],0.506
3,STFVPCEIKVQ [L1CAM_Y784_Y784C],0.579
4,NPQKSYFILLF [WAS_Y83_R86L_YF],1.01
5,PADSGYPAYLG [ATP6V1A_Y374],0.755
6,SFPSTYRFERG [INPPL1_Y661_P659S_YF],0.411
7,YGMQLYQKYMH [GRB14_Y347_N349K],0.572
8,RAIGYYSATSK [FAM120A_Y328],0.438
9,IMAFFYMCDRA [CASD1_Y382_YF],0.652
10,EEEPVYKAEPE [HCLS1_Y360_E361K],0.597
11,EEAAGYAQESQ [CAMKV_Y491],0.545
12,RPFFLYVAFHN [SGSH_Y174_D179N],0.564
13,RFLKDYGEFEV [GINS1_Y156_C152Y_YF],0.582
14,FGAHNHHPLPV [OAT_Y55_Y55H_YF],0.386
15,ERSMSYSDESR [SMG1_Y143],0.537
16,DLEKTYNTFRS [B4GALNT2_Y538_A533D_YF],0.431
17,ARAHKYHGGGG [HBB_Y146_L142R],0.324

row,Sequence,phosphorylation enrichment
1,LTKQEYDEAGP [ACTA1_Y364_I359L],0.811
2,YDGKEYDPVEA [MAPRE2_Y167],0.535
3,KDPPDYKYQPR [SOX9_Y172_H169P],0.461
4,NVLPEYKLQAP [KCNH2_Y388_D383N],0.411
5,VRTGIYHGGEP [PIK3CA_Y361],0.542
6,PLGVLYKVKVY [PTS_Y128_V124L],0.415
7,HKANEYYPVVI [ADAMTS18_Y764_L769I],17.4
8,RAQIRYAQEHD [NSD1_Y1987_R1984Q],0.507
9,RSSKMYPKTRS [LPL_Y329_L330P],0.547
10,IEELTYIIKQD [STX5_Y137],0.551
11,GRVFVYRLSEQ [ITGAE_Y551_YF],0.553
12,IYHLSYLHNCE [PDE6B_Y227],1.95
13,CDGKEYDPVEA [MAPRE2_Y167_Y162C],0.594
14,PGAPAYRVLME [MYO5A_Y1245],0.379
15,AVARPYHIQKW [ACSBG1_Y677_A673V],0.468
16,QRIHNYFEHRF [HCN4_Y554_D553N_YF],0.719

# Tested on: Fer (mouse)
# Test: as above
row,Sequence,phosphorylation enrichment
1,PRIHSYRGHLW [VHL_Y112_R107P],0.722
2,RELSWYRGQRP [HESX1_Y106_R109Q],0.376
3,STFVPCEIKVQ [L1CAM_Y784_Y784C],0.669
4,NPQKSYFILLF [WAS_Y83_R86L_YF],0.414
5,PADSGYPAYLG [ATP6V1A_Y374],0.798
6,SFPSTYRFERG [INPPL1_Y661_P659S_YF],0.427
7,YGMQLYQKYMH [GRB14_Y347_N349K],2.09
8,RAIGYYSATSK [FAM120A_Y328],0.563
9,IMAFFYMCDRA [CASD1_Y382_YF],0.677
10,EEEPVYKAEPE [HCLS1_Y360_E361K],0.576
11,EEAAGYAQESQ [CAMKV_Y491],0.547
12,RPFFLYVAFHN [SGSH_Y174_D179N],0.405
13,RFLKDYGEFEV [GINS1_Y156_C152Y_YF],0.63
14,FGAHNHHPLPV [OAT_Y55_Y55H_YF],0.505
15,ERSMSYSDESR [SMG1_Y143],0.485
16,DLEKTYNTFRS [B4GALNT2_Y538_A533D_YF],0.391
17,ARAHKYHGGGG [HBB_Y146_L142R],0.28

row,Sequence,phosphorylation enrichment
1,LTKQEYDEAGP [ACTA1_Y364_I359L],0.638
2,YDGKEYDPVEA [MAPRE2_Y167],0.621
3,KDPPDYKYQPR [SOX9_Y172_H169P],0.421
4,NVLPEYKLQAP [KCNH2_Y388_D383N],0.402
5,VRTGIYHGGEP [PIK3CA_Y361],0.457
6,PLGVLYKVKVY [PTS_Y128_V124L],0.511
7,HKANEYYPVVI [ADAMTS18_Y764_L769I],1.26
8,RAQIRYAQEHD [NSD1_Y1987_R1984Q],0.56
9,RSSKMYPKTRS [LPL_Y329_L330P],0.342
10,IEELTYIIKQD [STX5_Y137],0.411
11,GRVFVYRLSEQ [ITGAE_Y551_YF],0.425
12,IYHLSYLHNCE [PDE6B_Y227],1.28
13,CDGKEYDPVEA [MAPRE2_Y167_Y162C],0.65
14,PGAPAYRVLME [MYO5A_Y1245],0.671
15,AVARPYHIQKW [ACSBG1_Y677_A673V],0.332
16,QRIHNYFEHRF [HCN4_Y554_D553N_YF],0.343

# Tested on: AncSZ
# Test: as above
row,Sequence,phosphorylation enrichment
1,PRIHSYRGHLW [VHL_Y112_R107P],1.01
2,RELSWYRGQRP [HESX1_Y106_R109Q],0.962
3,STFVPCEIKVQ [L1CAM_Y784_Y784C],1.3
4,NPQKSYFILLF [WAS_Y83_R86L_YF],0.836
5,PADSGYPAYLG [ATP6V1A_Y374],1.18
6,SFPSTYRFERG [INPPL1_Y661_P659S_YF],0.538
7,YGMQLYQKYMH [GRB14_Y347_N349K],0.844
8,RAIGYYSATSK [FAM120A_Y328],0.765
9,IMAFFYMCDRA [CASD1_Y382_YF],1.48
10,EEEPVYKAEPE [HCLS1_Y360_E361K],1.06
11,EEAAGYAQESQ [CAMKV_Y491],1.22
12,RPFFLYVAFHN [SGSH_Y174_D179N],1.04
13,RFLKDYGEFEV [GINS1_Y156_C152Y_YF],1.04
14,FGAHNHHPLPV [OAT_Y55_Y55H_YF],0.58
15,ERSMSYSDESR [SMG1_Y143],0.887
16,DLEKTYNTFRS [B4GALNT2_Y538_A533D_YF],0.656
17,ARAHKYHGGGG [HBB_Y146_L142R],0.384

row,Sequence,phosphorylation enrichment
1,LTKQEYDEAGP [ACTA1_Y364_I359L],2.03
2,YDGKEYDPVEA [MAPRE2_Y167],1.21
3,KDPPDYKYQPR [SOX9_Y172_H169P],0.837
4,NVLPEYKLQAP [KCNH2_Y388_D383N],0.784
5,VRTGIYHGGEP [PIK3CA_Y361],0.641
6,PLGVLYKVKVY [PTS_Y128_V124L],1.61
7,HKANEYYPVVI [ADAMTS18_Y764_L769I],2.1
8,RAQIRYAQEHD [NSD1_Y1987_R1984Q],1.72
9,RSSKMYPKTRS [LPL_Y329_L330P],0.601
10,IEELTYIIKQD [STX5_Y137],1.33
11,GRVFVYRLSEQ [ITGAE_Y551_YF],0.81
12,IYHLSYLHNCE [PDE6B_Y227],1.46
13,CDGKEYDPVEA [MAPRE2_Y167_Y162C],1.36
14,PGAPAYRVLME [MYO5A_Y1245],0.592
15,AVARPYHIQKW [ACSBG1_Y677_A673V],0.643
16,QRIHNYFEHRF [HCN4_Y554_D553N_YF],0.647

# From the supplement of paper PMC10065799, “High-throughput profiling of sequence recognition by tyrosine kinases and SH2 domains using bacterial peptide display” (eLife, 2023)
